The data set in a line: soluble on expression in E. coli; label from the status in PepcDB or PDB records.
For the sequence “MKTVTEFQNKNILVLGIAKSGYAAATLLQKLGANVIVNDGKPLAENVLAAELQAKGMDVVCGGHPLELLERNISLVVKNPGIPYSNPILVAAKEKQIPIVTEVELAYRISEAPFVGITGSNGKTTTTMLTFEMLKEGQKHPVIAGNIGTVACEVAQDAKENEVVVTELSSFQLMGVELFQPKIAAFLNLFEAHLDYHGTKKEYGLAKANIFKNQTENDYSVINADDADVMALSAYSKGQKVLFSTTKEIEDGACIKDNALYFKAEKVVEVDDIVLPGQHNLENILAAMSIAKLLGVSNEAITAVLKRFTGVKHRLEYVTTINNRKFYNDSKATNMLATEKALSAFTQPTVLLAGGLDRGNEFDDLIPYFKNVKAIVTFGQTAPKLVRAAEKAGLDTIESVDTLDEAVVKAYAHSTDGDVILLSPACASWDQFKTFEERGDIFIQAVHKLI”, the “soluble on expression in E. coli” value was “not soluble”.

“MQVVSSATLPPTVASADLAIVGGRSSDEDVIKYSAIQTIKQEQQQQQQQQSNTALPSYNFPFFNGMQNDFPPNRMLYNDNTMQKSENDHFTGMNLSTSASSSGNSTSSKDQSRRQFYTESSNSSGNGAAATSGSNGSSSSTESKSDVFNISMNAFAATPGSKSEDHNIPSFNMLSSYYTGALKLSNSTSFANPDPYQILGPTSKNLAHSGSGQTQLWQFLLELLSDKRYSEVITWEGTQGEFKLVDPDEVARKWGERKSKPNMNYDKMSRALRYYYDKNIMAKVHGKRYAYKFDFQGIAQALQPPTASHPQDYFNSHAMGRIAPDFSSWTSANYRSLNIAGFNNGSTIFNPSVNYSAFGATGTSNNLSAARAFPLYR”: the “soluble on expression in E. coli” value was “not soluble”. Regarding “MQNDNAKPISISKQLVYDAFLRVKANRGSAGIDKVTLEDYEKNLRGNLYKLWNRMSSGSYFPPSVKLVEIPKSTGGKRPLGIPTVSDRVAQMAVVMLITPSIEPCFHEDSYAYRPHRSAHDAVGKARERCWKYAWVLDMDISKFFDTIDHELLLKALKRHTQEKWVLMYIERWLKVPYEKSDGSQVDRALGVPQGSVIGPVLANLFLHYTFDKWMEKNFPRVPFERYADDTICHCHSLKQAEYMQAMIQQRFECCRLRLNEEKTKIVYCKSSRQKECYPNVTFDFLGFTFQPRESVDKYGNRFTGFLPAISRKSMKRINETMRSWHLNRHSNLTLEHLASDINPIVRGWMTYYGKFYPTRLKWFMQTLNGRLARWVMCKFERYRHRFYPAQEWLARIAEKEGLIFYHWKCGALPRFTNKEKVSSQLIMVK”, the “soluble on expression in E. coli” value is “soluble”.

On to “MNVVRYTPWPGQAALQNEIKQVFDRFFEHNGDTDESAVVTAQWVPRVDIKEEPNQFVLYADLPGIDPADIEVQMDKGILSIKGERKTESSSQTEHFSRIERRYGSFHRRFALPDSADADGITASGSHGVLRILIPKQAATTPRRIQVGNAVSSDVALQSMLEHHHHHH”, for which the “soluble on expression in E. coli” value is “soluble”. The same measure for “MGSDKIHHHHHHMTLLDRFDGGFARDGEDIIAGSRIEDARIHNRRLVFETIFQRGPISRVEISAIVGLKPQTISSITRELLEQELIVEAGRSSGLRGQPQIYLEANAEAGFSIGVHLDQNQCHILVFDLKRQERARKSMRCDTANPDVTVRMLAQTITTLLHDNALPAERIWGLGLVLPTFGSDVYDFDFSMRHWEAWRDASFAEDLQRLTGFAVLVENDGTAAAIGERLHRHDAQEASFAYFYIGHGAGAGLIIDGYPFKGVGGNAGEIGLLPILGLGANPVWPDNPSSAVQGGVLSIGGLAAACGLSEQSMDEQSILSLLERRDHRLMDWLASAASVLRDVCAVIEVMFDPGFIAVGGALPRALVERLVDRAYPLRPTPSARRDRALPRLLPATLIEDAAVTGAAMLPIFVTTSHNFRHLYFRQILADDRS”: “not soluble”; for “MKLASYLQENIVVEKNGRFTIPIKKQYRSKVSGTVIDTSSSGATVFMEPKEVGALYEQLDDLLAAESYEVETILYTLTASVLAIEKELHLAMDIMHHYDVLFAKAKYGRSIDGVIPLEHHHHHH”: “not soluble”; for “SFTSMLSVNQAVSAERKLIDHLIIYIEHEAQRLEDIKRFFSRVTSLHDGIYNEPSDPIANPIAAFKLVKRLKSEWLNVVHSTEAEENIKVLREDYRRMESSLPKLEDLRGAAHGLMRLQDVYNLHVESLVRGHFQQISDPVDFYKLSVSDMLSGDDCFLVGKVAYDLEDYYHSVLWFEEAVRLFRGTEWSPENEGTLEDALDHLAFSHFKVCH”: “not soluble”. The same measure for “MSKLKIAVSDSCPDCFTTQRECIYINESRNIDVAAIVLSLNDVTCGKLDEIDATGYGIPVFIATENQERVPAEYLPRISGVFENCESRREFYGRQLETAASHYETQLRPPFFRALVDYVNQGNSAFDCPGHQGGEFFRRHPAGNQFVEYFGEALFRADLCNADVAMGDLLIHEGAPCIAQQHAAKVFNADKTYFVLNGTSSSNKVVLNALLTPGDLVLFDRNNHKSNHHGALLQAGATPVYLETARNPYGFIGGIDAHCFEESYLRELIAEVAPQRAKEARPFRLAVIQLGTYDGTIYNARQVVDKIGHLCDYILFDSAWVGYEQFIPMMADCSPLLLDLNENDPGILVTQSVHKQQAGFSQTSQIHKKDSHIKGQQRYVPHKRMNNAFMMHASTSPFYPLFAALNINAKMHEGVSGRNMWMDCVVNGINARKLILDNCQHIRPFVPELVDGKPWQSYETAQIAVDLRFFQFVPGEHWHSFEGYAENQYFVDPCKLLLTTPGIDARNGEYEAFGVPATILANFLRENGVVPEKCDLNSILFLLTPAEDMAKLQQLVALLVRFEKLLESDAPLAEVLPSIYKQHEERYAGYTLRQLCQEMHDLYARHNVKQLQKEMFRKEHFPRVSMNPQEANYAYLRGEVELVRLPDAEGRIAAEGALPYPPGVLCVVPGEIWGGAVLRYFSALEEGINLLPGFAPELQGVYIEEHDGRKQVWCYVIKPRDAQSTLLKGEKL”: “soluble”; for “MLRDKSVNLDDGDPFTIALFGVDSNAERNANGGGQRSDTIMVLSVNPEKKTTEIVSIPRDTQADIVGKGTTEKINHAYAYGGPDMAVKSLEKLLNVPIDHYATIDMDGMQDMIDTVGGITVTSNATFSYDGYQFTEGERSKMDGKEAMAFIRSRKEDGAGGDFGRQERQQLVIQGLANKLTSVSSITHFNSLMNHVEDNVKTDLSVGELNKVRSNYKDANDNVNRHQLEGQGGIQDDGLYYFVPSENSLNEIETNVKDNLGILEHHHHHH”: “soluble”. For “MGSDKIHHHHHHMTNLNEKQLITEIVGLARSQGLTVHSENAQLNETGMDFQVVFAKDDTGMPWVLRKPRRSDVVERASAEGITLAFLRANLTADVPDWRIHTPELIAYPMLKGTPAAGIDLEQKQYVWNMDHQPPSDDFVRTLADILAELHGTDQISAGQSGIEVIRPEDFRQMTADSMVDVKNKLGVSTTLWERWQKWVDDDAYWPGFSSLIHGDLHPPHILIDQNGRVTGLLDWTEAKVADPAKDFVLYQTIFGEKETARLLEYYDQAGGRIWAKMQEHISEMQAAYPVEIAKLALQTQQEEHINMALEALGVTSD” the value was “not soluble”; for “MGSDKIHHHHHHMEENIWWRGKDYIEEDEDIKKWNSAKFKWIPKEINKISLQPFSLNFIVGPRQVGKTTLIKLLIKKLLESNHNPLSIFYCSCDLVSDYEELLKRTRDYLKIRKQEGIKSSFIFLDEVTFVKEWYRAVKHLIDTGELTSDVVTVSGSSSLTILKQKESFPGRRGNGTDVILYPLSFSGYINVINPKIEVRPGWYSEIEELFESYLKVGGLPPSINGLSPLKTYTEWIIYEINRVGRDEMLAKQILSAVLSTTPSKVSYNSIAKEIGVNHRTVAEYIKLFNDMFLTLTLHFIDVNTGYYNYRKQIKIHFVDPLFYDVMSTWTGVKRPDDPIIVEGIVASHLSRIYSIGYTEVGKEEIDVVTLPEVIGYEVKYRERTKQVKVIAGKMKKVITLSKHGENDTFPVHLFLAELNI”, “not soluble”; for “MCECYQFYRMRITQSAQICLSVIKKSQKTGFGPNRLQRKGTHFVGTEPPVLKYHILQDKKPNEEYGLQGTNHELPGTGKVHSKLPTKVHMKKDKVYAWCSCGYSGSQPLCDGSHNSIRIPDLKLKPVRFIPDKDMTVWLCNCKQTNNRPFCDGSHKTVTDEDKKAGLFD”, “not soluble”. Take “GPGSMDTECLRARHSECIDLASVQLRRQLMDSGIPFTEAEIAALPARFVELLISRLEMFRQREVETRAAVDKCRRETEVEEMRFEQLREATERVQGEKRIISSKISAAVSEYMREDKLEKEKQRERHNELQEVFRQVEKKEAEHRREIIEMERLRKMLKKVTK”: the “soluble on expression in E. coli” value is “not soluble”.

Source of the values: the DeepSol protein solubility set.
